Results as given in patent US8975044B2, “Polynucleotides encoding for frizzled-binding agents and uses thereof” (OncoMed Pharmaceuticals, Inc., priority 2008, dated 2015).
Entries after “also recorded” stand apart in the source; their conditions may differ.

Columns and labels:
Wnt target genes [1] = assay: qPCR of Wnt target genes in liver of OMP-PN13-bearing mice; format: in vivo, NOD/SCID mice
Description: (§1) Frozen OMP-PN13 tumor cells that have been passaged twice in mice were obtained from Oncomed's tumor bank. They were thawed and injected subcutaneously into the left flank of NOD/SCID mice immediately following thawing. ˜ 25,000 viable cells were injected per animal. The mice were monitored weekly for tumor growth. After their onset, the size of the tumors was measured once weekly by caliper. 200-300 mm^3 tumor-bearing mice were dispatched in treatment groups that each contained 5 animals. […] Ab treatment was initiated the day after randomization. LZ1 was used as the negative control Ab. 3 doses of 10 mg/kg of Ab were administered via intra-peritoneal injection over a 12-day period. Mice were euthanized 24 hours after the last injection. Tumor, duodenum and liver were harvested.
(§2) Total RNAs were also extracted from tumor, duodenum and liver for Wnt target gene expression analyses using qPCR.
Tissues were immediately transferred into RNAlater (QIAGEN) at the time of harvest. RNA was extracted using the QIAGEN RNeasy for Fibrous Tissue mini kit according to the manufacturer instructions. 50 ng total RNA were submitted to gene expression analyses using ABI one-step RT-PCR protocol and reagents. GusB gene expression was used as endogenous control. Triplicates were setup for each sample. All 5 tumors of each treatment group were analyzed. ABI 7900 TaqMan machine was used to run the experiments. ABI SDS 2.2.1 software was used to analyze the data and calculate DeltaCt values that were converted into relative quantities. The triplicate values of all 5 tumors were averaged for each treatment group. Fold inhibition factors were then calculated relative to control antibody (LZ1).

Wnt target genes [2] = assay: qPCR of Wnt target genes in tumor of OMP-PN13-bearing mice; format: in vivo, NOD/SCID mice
Description: as §1, §2
Tissues were immediately transferred into RNAlater (QIAGEN) at the time of harvest. RNA was extracted using the QIAGEN RNeasy for Fibrous Tissue mini kit according to the manufacturer instructions. […] All 5 tumors of each treatment group were analyzed. […] ABI SDS 2.2.1 software was used to analyze the data and calculate DeltaCt values that were converted into relative quantities. […] Fold inhibition factors were then calculated relative to control antibody (LZ1).

Wnt signaling pathway = assay: 8xTCF luciferase reporter assay in STF293 cells with Wnt3A-conditioned medium; format: cell-based, human; details: range of antibody concentrations, 18 hours
Description: STF293 cells were cultured in DMEM supplemented with antibiotics and 10% FCS. The STF293 cells are 293 cells in which the following have been stably integrated: (1) an 8×TCF Luc reporter vector containing […] of the TCF binding site linked to a promoter upstream of a firefly luciferase reporter gene to measure canonical Wnt signaling levels (Gazit et al., 1999, Oncogene 18:5959-66) and (2) a Renilla luciferase reporter (Promega; Madison, Wis.) as an internal control for transfection efficiency. The cells were added to cultures plates. The FZD antibodies to be tested (or no antibodies) were added. The cells were then incubated in the presence or absence of Wnt3A-conditioned medium that had been prepared from L cells that stably express Wnt3a (ATCC CRL-2647) or control conditioned media from L cells not overexpressing Wnt3A (ATCC cell line CRL-2648). After overnight incubation, luciferase levels were measured using a dual luciferase assay kit (Promega; Madison, Wis.) with firefly luciferase activity normalized to Renilla luciferase activity.
The ability of the 18R8 and 18R5 antibodies to inhibit Wnt-induced pathway activation was thus determined. STF293 cells were treated with different concentrations of 18R8 or 18R5 IgG antibodies and Wnt3A-conditioned medium was added. The cells were assayed 18 hours later using the dual luciferase assay kit.

FZD8 [3] = biological target: T1, FZD8 (Homo sapiens, UniProt Q9H461, E68Q/V69L); assay: Epitope mapping by FACS on FZD8 Fri domain variants on HEK293 cells; format: binding; details: amino acids 68-69 mutated from EV to QL
T1 construct: N-terminus of the Fri domain of FZD8 in turn fused to the transmembrane domain and intracellular domain of CD4 protein; expressed in transfected cells; host or cells: HEK293
T1 sequence (Q9H461 28-158 E68Q/V69L): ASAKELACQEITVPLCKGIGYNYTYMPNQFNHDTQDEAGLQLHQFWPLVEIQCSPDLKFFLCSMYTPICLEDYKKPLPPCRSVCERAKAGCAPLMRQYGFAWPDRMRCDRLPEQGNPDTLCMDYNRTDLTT
Description: (§3) To identify the FZD epitope recognized by the 18R8 IgG antibody, epitope mapping was performed. Flow cytometry analysis of cell surface expressed FZD was utilized to measure antibody binding. Mammalian expression plasmid vectors comprising a CMV promoter upstream of polynucleotides that encode an N-terminal signal sequence FLAG epitope tag fused to the N-terminus of the Fri domain of FZD8 in turn fused to the transmembrane domain and intracellular domain of CD4 protein were generated by standard recombinant technology. This expression construct allows expression of the FZD8 Fri domain on the cell surface, as well as expression of a FLAG epitope tag to monitor expression. Site-direct mutagenesis was then used to modify selected amino acids within the extracellular domain of FZD. HEK293 cells were co-transfected with expression vectors encoding the FZD and the transfection marker GFP. Forty-eight hours post-transfection, cells were collected in suspension and incubated on ice with anti-FZD antibody or control IgG to detect background antibody binding. The cells were washed and primary antibodies detected with anti-antibody secondary antibodies conjugated to a fluorescent chromophore. Labeled cells were then analyzed by flow cytometry to measure the binding of anti-FZD antibody to cell surface FZD.
(§4) Epitope mapping for the anti-FZD antibody 44R24 was performed in a manner similar to that described above in Example 5 for the antibodies 18R8 and 18R5. The ability of 44R24 to bind to a similar epitope as 18R8 was assessed by flow cytometry using a series of amino acid variants of FZD8 previously shown to disrupt binding of 18R8 (see Example 5 and FIGS. 6 and 7).

FZD8 [4] = biological target: T2, FZD8 (Homo sapiens, UniProt Q9H461, H70A/Q71E); assay: as above; format: binding; details: residues 70-71 changed from HQ to AE
T2 construct: N-terminus of the Fri domain of FZD8 in turn fused to the transmembrane domain and intracellular domain of CD4 protein; expressed in transfected cells; host or cells: HEK293
T2 sequence (Q9H461 28-158 H70A/Q71E): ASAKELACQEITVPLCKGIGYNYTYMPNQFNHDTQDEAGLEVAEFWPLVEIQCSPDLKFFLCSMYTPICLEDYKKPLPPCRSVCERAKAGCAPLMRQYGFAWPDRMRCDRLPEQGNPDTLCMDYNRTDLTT
Description: as §3, §4

[5] = tested on: MMTV-WNT1 tumor derived cells; assay: MMTV-WNT1 tumor growth; format: in vivo, NOD/SCID mice; details: 10 mg/kg intra-peritoneal twice weekly; p=0.002
Description: Female NOD/SCID mice were injected at age 5-7 weeks with 50,000 mouse mammary tumor virus (MMTV)-WNT1 tumor derived cells in the upper right mammary fat pad. […] Tumors from these mice were dissociated and these dissociated tumor cells used for tumor propagation purposes. Mice with tumor cells implanted in the mammary fat pad were monitored twice a week. Once tumors were palpable, tumors were measured twice weekly and tumor volume was determined using the formula ½(a×b^2); where a=length, and b=breadth. Data are expressed as mean and mean±S.E.M. Group means were compared using Student's two-tailed, unpaired t test. […] On day 19, mice with average tumor volume of 44 mm^3 were randomized into 2 groups of 10 animals each. Animals were injected with either control antibody, or 18R5 IgG antibody (10 mg/kg). Administration of the antibodies was performed via injection into the intra-peritoneal cavity, twice weekly.

[6] = fold relative to control antibody LZ1, 3 doses of 10 mg/kg over 12 days

B1: 18R5: human anti-FZD antibody; VH SEQ ID NO:10 (as 18R8), VL SEQ ID NO:14; binds FZD1, 2, 5, 7, 8 (antibody, V domains shown)
VH: EVQLVESGGGLVQPGGSLRLSCAASGFTFSHYTLSWVRQAPGKGLEWVSVISGDGSYTYYADSVKGRFTISSDNSKNTLYLQMNSLRAEDTAVYYCARNFIKYVFANWGQGTLVTVSS
VL: DIELTQPPSVSVAPGQTARISCSGDNIGSFYVHWYQQKPGQAPVLVIYDKSNRPSGIPERFSGSNSGNTATLTISGTQAEDEADYYCQSYANTLSLVFGGGTKLTVLG
modifications: 18R5/18R8 heavy chain variable region (VH); 18R5 light chain variable region (VL)
B1 was tested, and the “Liver GluI” value (Wnt target genes [1]; [6]) was −19x, the “Liver Lect2” value (Wnt target genes [1]; [6]) was −8x and the “Liver Lgr5” value (Wnt target genes [1]; [6]) was −26x. The “inhibition of Wnt target gene in liver” value (Wnt target genes [1]; relative to LZ1) was 8 ×, the “inhibition of Wnt target gene in tumor” value (Wnt target genes [2]; relative to LZ1) was 2.3 × and the “inhibition of Wnt3A-induced TCF signaling” value (Wnt signaling pathway) was “Greater inhibition; also recorded: inhibit Wnt signaling”. For the same molecule, the “binding to FZD8 variant” value (FZD8 [3]) was “reduced staining”, the “binding to FZD8 variant” value (FZD8 [4]) was “reduced staining” and the “tumor growth compared to control antibody” value [5] was “completely abolished tumor growth”.

B2: 18R8: human anti-FZD antibody from phage display; VH SEQ ID NO:10, VL SEQ ID NO:12; binds FZD1, 2, 5, 7, 8 (antibody, V domains shown)
VH: EVQLVESGGGLVQPGGSLRLSCAASGFTFSHYTLSWVRQAPGKGLEWVSVISGDGSYTYYADSVKGRFTISSDNSKNTLYLQMNSLRAEDTAVYYCARNFIKYVFANWGQGTLVTVSS
VL: DIELTQPPSVSVAPGQTARISCSGDKLGKKYASWYQQKPGQAPVLVIYEKDNRPSGIPERFSGSNSGNTATLTISGTQAEDEADYYCSSFAGNSLEVFGGGTKLTVLG
modifications: 18R5/18R8 heavy chain variable region (VH); 18R8 light chain variable region (VL)
With B2 the “inhibition of Wnt3A-induced TCF signaling” value (Wnt signaling pathway) was “inhibit Wnt signaling”, the “binding to FZD8 variant” value (FZD8 [3]) was “similarly lost” and the “binding to FZD8 variant” value (FZD8 [4]) was “clearly diminished”. The “tumor growth compared to control antibody” value [5] was “virtually eliminated”.

B3: 44R24: anti-FZD5/8 IgG antibody, VH SEQ ID NO:85, VL SEQ ID NO:86; ATCC deposit no. PTA-10311 (antibody, V domains shown)
VH: EVQLVESGGGLVQPGGSLRLSCAASGFTFSSYYITWVRQAPGKGLEWVSTISYSSSNTYYADSVKGRFTISRDNSKNTLYLQMNSLRAEDTAVYYCARSIVFDYWGQGTLVTVSS
VL: DIELTQPPSVSVAPGQTARISCSGDALGNRYVYWYQQKPGQAPVLVIPSGIPERFSGSNSGNTATLTISGTQAEDEADYYCGSWDTRPYPKYVFGGGTKLTVLG
modifications: 44R24 VH; 44R24 VL
notes: ATCC deposit no; PTA-10311
In the case of B3, the “Liver Axin2” value (Wnt target genes [1]; [6]) is reported as −2.4x, the “Liver Rhbg” value (Wnt target genes [1]; [6]) is reported as −1.9x and the “tumor Axin2” value (Wnt target genes [2]; [6]) is reported as −1.8x.
